Key:
[1] = target: Pyruvate kinase from rabbit (rabbit) (UniProt P11974); assay: native MS
native MS = target: the molecule itself; assay: native MS

Pyruvate kinase from rabbit, sequence (P11974 whole entry): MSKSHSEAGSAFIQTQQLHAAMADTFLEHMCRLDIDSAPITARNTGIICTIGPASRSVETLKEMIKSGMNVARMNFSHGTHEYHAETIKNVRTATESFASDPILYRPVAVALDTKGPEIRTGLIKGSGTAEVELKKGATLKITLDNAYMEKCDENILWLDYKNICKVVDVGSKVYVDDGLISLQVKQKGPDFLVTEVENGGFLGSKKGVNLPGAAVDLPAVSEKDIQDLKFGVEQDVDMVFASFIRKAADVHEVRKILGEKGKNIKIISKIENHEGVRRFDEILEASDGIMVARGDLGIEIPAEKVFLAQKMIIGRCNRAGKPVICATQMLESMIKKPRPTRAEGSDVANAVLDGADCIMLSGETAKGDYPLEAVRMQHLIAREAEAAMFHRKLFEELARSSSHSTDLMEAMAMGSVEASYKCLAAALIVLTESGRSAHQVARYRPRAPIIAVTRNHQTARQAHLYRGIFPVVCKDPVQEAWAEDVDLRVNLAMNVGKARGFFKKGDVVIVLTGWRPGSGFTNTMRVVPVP

Row | Molecule | stoichiometry N [1] | stoichiometry N (native MS)
1 | Pyruvate kinase from rabbit (from UniProt P11974 1-531) (enzyme) | 4 | 
2 | Cholera toxin B (natural protein) TPQNITDLCAEYHNTQIYTLNDKIFSYTESLAGKREMAIITFKNGAIFQVEVPGSQHIDSQKKAIERMKDTLRIAYLTEAKVEKLCVWNNKTPHAIAAISMAN |  | 5

Reference: publication PMC11651300 (Journal of the American Society for Mass Spectrometry, 2024)
